The values below come from article PMC6426329 (Journal of immunology (Baltimore, Md. : 1950), 2018).

“Also recorded” adds a separate entry of the source.

The target in one assay is DRB4 protein (Homo sapiens, UniProt P01903+P13762, G164S). Put plainly: Peptide binding competition assay. Particulars: in vitro competition assay.
In assay [1] the target is Recombinant DRB4 protein (DRA1/B4*01:01) (human) (UniProt P01903). Put plainly: peptide binding competition assay.

For the molecule “PPI 12–23: truncated version of the PPI 9–28 peptide (ALLALWGPDPAA)”, the “Binding to DRB4 (in words)” value in the assay with DRB4 protein is recorded as “able to bind; also recorded: detectable binding”.

The IC50 is the point on the concentration scale where inhibition reaches its midpoint. As for GAD65 265–284 peptide, the IC50 in assay [1] was 10 µM.

IAPVFVLLEYVTLKKMREII [GAD65 209–228 peptide]: in assay [1], the IC50 was determined as 21 µM.

Consider ATHQDIDFLIEEIERLGQDL [GAD65 566–585 peptide], for which the concentration for half-maximal inhibition (IC50) in assay [1] is 12 µM.

For KVNFFRMVISNPAATHQDID [GAD65 553–572 peptide], the 50% inhibitory concentration (IC50) in assay [1] amounted to 7.8 µM.

On to ICKKYKIWMHVDAAWGGGLL [GAD65 353–372 peptide], for which, in assay [1], the IC50 amounted to 0.9 µM.

Turning to SDLERRILEAKQKGFVPFLV [GAD65 313–332 peptide], the concentration for half-maximal inhibition (IC50) in assay [1] amounted to 22 µM.

DERGKMIPSDLERRILEAKQ [GAD65 305–324 peptide]: in assay [1], the half-inhibitory concentration (IC50) stood at 29 µM.

On to HVDVFKLWLMWRAKGTTGFE [GAD65 449–468 peptide], for which the IC50 in assay [1] is 32 µM.

Regarding LRTLEDNEERMSRLSKVAPV [GAD65 513–532 peptide], the IC50 in assay [1] came to 5.9 µM.

As for PGGAISNMYAMMIARFKMFP [GAD65 241–260 peptide], in assay [1], the IC50 turned out to be 0.6 µM.

In the case of VAPVIKARMMEYGTTMVSYQ [GAD65 529–548 peptide], in assay [1], the IC50 worked out at 2.8 µM.

DVMNILLQYVVKSFDRSTKV [GAD65 113–132 peptide]: in assay [1], the IC50 was found to be 1.4 µM.

On to NTNMFTYEIAPVFVLLEYVT [GAD65 201–220 peptide], for which the 50% inhibitory concentration (IC50) in assay [1] was 1.2 µM.
